The values that follow come from paper PMC2819690 (The Journal of Cell Biology, 2010).

The assay concerns the target SNARE (H3) domain of syntaxin-1a (aa 180–262) (rat, UniProt P32851 180-262). The assay can be described thus: assembly of purified monomers and anion-exchange chromatography.

Sequence of SNARE (H3) domain of syntaxin-1a (aa 180–262) (P32851 180-262): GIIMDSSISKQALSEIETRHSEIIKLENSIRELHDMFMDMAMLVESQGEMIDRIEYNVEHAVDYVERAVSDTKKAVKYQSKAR

NVDKVLERDQKLSELDDRADALQAGASQFETSAAKLKRKYWWKNLKMM (domain or fragment) [Syb49–96]: the binding result is “binds”.
